Experiments:
SaFapR [1] = target: T1, SaFapR (Staphylococcus aureus RN4220, UniProt Q2FZ56 1-190); experiment: ITC; second dimer, sequential binding model, 25 C; ITC: 50 mM Tris-HCl pH 8, 150 mM NaCl, 25 C; EMSA: 20 mM Tris-HCl pH 8, 350 mM NaCl, 10 mM MgCl2, 5 mM DTT, 15 min room temperature, native 5% PAGE in 45 mM Tris-borate pH 8, 1 mM EDTA; settings: protein: recombinant; tags: N-terminal His-tag removed with TEV protease; chain copies: 2
T1 sequence: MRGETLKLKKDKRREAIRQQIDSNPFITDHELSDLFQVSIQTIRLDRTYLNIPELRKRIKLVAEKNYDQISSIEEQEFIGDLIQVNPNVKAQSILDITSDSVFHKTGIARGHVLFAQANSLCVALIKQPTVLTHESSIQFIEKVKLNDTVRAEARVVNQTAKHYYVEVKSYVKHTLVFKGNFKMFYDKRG

SaFapR [2] = target: T1, SaFapR; experiment: ITC; first dimer, sequential binding model, 25 C; ITC: 50 mM Tris-HCl pH 8, 150 mM NaCl, 25 C; EMSA: 20 mM Tris-HCl pH 8, 350 mM NaCl, 10 mM MgCl2, 5 mM DTT, 15 min room temperature, native 5% PAGE in 45 mM Tris-borate pH 8, 1 mM EDTA; settings: protein: recombinant; tags: N-terminal His-tag removed with TEV protease; chain copies: 2

B1: PfapR operator 40 bp (dsDNA)
DNA 1: GCCAATTATATACTACTATTAGTACCTAGTCTTAATTCCG
DNA 2: CGGAATTAAGACTAGGTACTAATAGTAGTATATAATTGGC
Kd (SaFapR [1]): 51 ± 8 nM
Kd (SaFapR [2]): 0.5 ± 0.1 nM
